Results published in the supplement of paper PMC12764529.
± gives the half width of the 95% confidence interval.

Key:
[1] = folding stability dG unfold (combined trypsin and chymotrypsin); higher = more stable
Procedure, shortened: (§1)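 Sequencing followed digestion of designed mini-proteins with trypsin and chymotrypsin, each at 11 concentrations in threefold dilutions together with a no-protease condition. The mini-proteins were under 80 residues, had no cysteine, sat in a PA-tagged cDNA display construct, and were kept only if AlphaFold2 dimer inter-PAE was above 15. From the counts, Bayesian fitting gave K50, and unfolding free energy was derived against a sequence-predicted unfolded-state K50 and a shared folded-state K50, per protease or combined.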

[2] = folding stability dG unfold from chymotrypsin proteolysis; higher = more stable
Procedure, shortened: as §1

[3] = folding stability dG unfold from trypsin proteolysis; higher = more stable
Procedure, shortened: as §1

Sequence	folding stability dG unfold [1] [kcal/mol]	folding stability dG unfold [2] [kcal/mol]	folding stability dG unfold [3] [kcal/mol]
SKKVLFIEAKSEEELKAAVKALLDAGYDEIVVSSPEAAKALKELLPDVKVTLVEVKPEKKLSEEEKKKLKSA [r9_639_TrROS_Hall]	1.05 ± 0.26	1.42 ± 0.096	0.505 ± 0.33
SKKYKIKKVTIFVYKNGKVEEKEVDLTVDELKALEDAGFEVVKVEEKDGYITVVIKKDGYLVIIKIEIEPSA [r9_5_TrROS_Hall]	3.52 ± 0.37	3.9 ± 0.2	2.73 ± 0.18
SKLKPGDIVKLENGEYYRIKKIEISYDKETKEFTIKAEIEPAPPVETETETKTNADGSTETVTKTKVELPSA [r9_914_TrROS_Hall]	1.95 ± 0.042	2.366 ± 0.021	0.701 ± 0.061
SKMKIKIEVEKVEDGYLKITITAESKEEAEKAIKELAKKLFGIEEVKVEYDKETKKITVEIIIRPPGEKVSA [r9_1120_TrROS_Hall]	2.95 ± 0.35	3.61 ± 0.18	2 ± 0.17
SKPMSPRDQLREIADDIAEKLNEKNGKPYKVRVEFEYPNMPFEIEIPPEAPIEDIMDHFPGWKIKVEIEPSA [r9_513_TrROS]	0.0339 ± 0.52	0.0344 ± 0.32	0.00988 ± 0.15
SKTIEIEIRVGGELYRIKIKVKRKGEPEEEIELTVPAGMSIEEIAARLKELYPDLKVEIVEIERLPPPEPSA [r9_364_TrROS_Hall]	3.86 ± 0.082	4.17 ± 0.11	2.98 ± 0.072
SKTIMIPANMPIDFIRKIARNAAKNGPPVKITIMIPDNPKIKEWLEEAGFPVEIERNKENNMQMITIEVPSA [r9_759_TrROS]	1.91 ± 0.07	1.95 ± 0.028	1.8 ± 0.029
SKTLTLEVEVPEGPVRIVVEASDGSRLEAEVPADEKVTFTIPIPPDIPEETKVTVRVYNPETGEVTELEASA [r9_275_TrMRF]	0.789 ± 0.066	1.11 ± 0.069	0.353 ± 0.063
SKTVIIEVPAKDLDKIKELIKKLKPGQKVKIVFKDANGKLITVTIEVKPAPPPKISLEELSEEQRKALEKSA [r9_1103_TrROS_Hall]	1.79 ± 0.28	1.89 ± 0.23	1.53 ± 0.081
SKVEIEVERLPDGTLLVRATAEIPGIPGEKIELAVLVRLPAPERVEVRLLAAPPVETVTETRTYSEEEKKSA [r9_1009_TrROS_Hall]	1.46 ± 0.17	1.52 ± 0.11	1.27 ± 0.12
SKVKVYIIKKDKVIPEIELDVSSVEEAVEKVLEYISKLPKNTPYLVRIEVEKYDPATGKKSYGTLLLPVGSA [r9_245_TrMRF]	4.05 ± 0.1	4.53 ± 0.095	2.76 ± 0.048
SKVTIYFPNMPPEEIIDAIRKNPGKPVEIWMMPNNPDRFKNWLQDAKIEVEPQPNPDGQPWVKMEIEVPDSA [r9_1138_TrROS]	0.794 ± 0.078	0.969 ± 0.095	0.571 ± 0.035
SKYVQVRFPNYTIMVKKRKSPNGKPEVEVMLYNPPNGKMIPVEVKSPEDAEEAVKDAIRAMFPDEELRDLSA [r9_749_TrROS]	0.687 ± 0.17	0.46 ± 0.47	0.827 ± 0.09
SLEVARELGLPVERAIPTSVDPFNGRTHLVVLVSLPSRFVRIEVDVRYEPDPDGRLIPRVEVLRIEVFPESA [r9_613_TrMRF]	3.21 ± 0.05	3.67 ± 0.04	2.59 ± 0.048
SLKNGDPIMVKIEIEQYNPKNGKPQEQKHSIMIPPGDPVTINIPGLPPGYKVRVEIYPMDGKPIGEHTIPSA [r9_478_TrROS]	1.48 ± 0.14	1.14 ± 0.047	1.73 ± 0.12
SLKPGEPRTVEMTMIIPITPDEIAKLFGLDIPPGTYIMVEMRMRVPPNADIEMDPDIHLYDPDDNKWFPISA [r9_349_TrROS]	2.86 ± 0.22	3.29 ± 0.086	2.18 ± 0.089
SLLENLKIEEIKEYTLPDGSPAIVIRFGDYTIVFNPGTGELRIYKGDKIIRTITIPFPIPDPNKPEDLAASA [r9_1065_TrMRF]	3.28 ± 0.084	3.405 ± 0.034	3.22 ± 0.16
SLPNRPLVPFELELRLPRFEVRVRLYRLPDGSYLLVAEIRFPNGLTARAEFVLDPVTGRIYLVRVEVRPESA [r9_795_TrMRF]	4.29 ± 0.05	4.56 ± 0.05	3.82 ± 0.041
SLPYTPSTAELTLTLPGGEVKVKANVYTLPDGSTITIATFPDGSVAVYDPSLGRLVLYDPSTGKPIAVLGSA [r9_970_TrMRF]	2.32 ± 0.028	2.173 ± 0.013	2.41 ± 0.038
SLSITVPPDKGLVLVNEGLKDGKVKLFLDDKVEEVEVPAGETLVFEVPPDYKGFKLEVIGDDGVVLSVDGSA [r9_143_TrMRF]	0.599 ± 0.22	0.322 ± 0.29	0.627 ± 0.13
SLSKSTPVSSLEEALKIAKEAAEEFEKELGKPYPVLVEVEFEPLEDGSVLVRFKLYRPEEGKYLREIEVGSA [r9_794_TrMRF]	1.38 ± 0.18	1.67 ± 0.2	0.874 ± 0.064
SLTLTDPVLVLVEVDLYNPETGAPTKRSLAVLVPPGTPVTVTLPGVHPDARVRVTVYTPNGKPLGEFELPSA [r9_478_TrMRF]	2.26 ± 0.14	2.12 ± 0.12	2.1 ± 0.13
SMEDMSVEELLELLREKLREAREKGKSLEDIKITIVIVAETEEEKEAIAKALKEEFPEIKEIKIEVLPPESA [r9_341_TrROS_Hall]	2.92 ± 0.26	2.64 ± 0.15	3.06 ± 0.14
SMEEELPPKVTEVVVKVPLSPDASPEEIAAARALAAELAAALEAAGYRDVEVTVEPTEPGALVIRARVVVSA [r9_865_JUSTAS]	3.908 ± 0.034	4.36 ± 0.057	2.79 ± 0.036
SMEEFAKSLPDVKIETKPLSPDEIEITVYIPSDPEKAKKVEEIVKKLAEEIEKKTGIKVKVTFKPVPPEESA [r9_1099_JUSTAS]	3.59 ± 0.68	3.32 ± 0.21	3.24 ± 0.24
SMEELLEKALEEAKEAAEKGEKTVIIEIRVDGKTFRIEIDVETGEIVKIEKEKREDGSEIFRIEIKLPEPSA [r9_308_TrROS_Hall]	1.3 ± 0.39	1.61 ± 0.086	0.695 ± 0.07
